Patent publication US20230151434A1, “REAWAKENING OF DORMANT TUMOR CELLS BY MODIFIED LIPIDS DERIVED FROM STRESS ACTIVATED NEUTROPHILS” (The Wistar Institute of Anatomy and Biology, priority 2020, published 2023)

Experiments:
[1] = system: A549^cisA and OVCAR3^cisA cells; assay: In vitro co-culture of chemotherapy-arrested human tumor cells with human PMN; type: cell-based; details: PMN and NE plus ICI-118,551
Description: The KPr cell line (16) was maintained in RPMI 1640 medium (Corning) and 10% FBS (Gibco). Treatment of KPr cells with 250 nM 4-hydroxytamoxifen (4-OHT, Sigma-Aldrich) induced p53 expression. p53-induced cells (KPr^p53) were stained with CellTrace dye for 20 min at 37° C. according to the manufacturer's instructions (Life Technologies) and seeded at 8500 cells/cm^2 in culture in a T175 tissue culture-treated flask (Gibco). After 7 days, cells were detached and sorted based on the CellTrace dye intensity as proliferating (KPr^p53P, with lower CellTrace) and arrested cells (KPr^p53A, with higher-intensity CellTrace; see FIG. 1A for representative image). LL2 cells were seeded at 1000 cells/cm2 and treated for 3 days with 2.5 μM cisplatin (Selleckchem). After that, cells were stained with CellTrace and sorted as described above. OVCAR3 cell senescence was induced by treating 5×10^4 cells/cm2 with 0.5 μM cisplatin for 72 hours. After that time, cells were stained with CellTrace and sorted. A549 senescence was induced by 72-hour treatment with 4 μM cisplatin and cells were sorted after staining with CellTrace. Time points for sorting were chosen as the best to observe separation between arrested and proliferating cells. Cells were sorted on Astrios (Beckman Coulter) or Melody (Becton Dickinson) fluorescence-activated cell sorters.
Arrested tumor cells were plated at 100 cells/cm^2 in a 48-well tissue culture-treated plate (Costar) for coculture experiments. After 24 hours, PMN-MDSC or PMN were added at indicated ratios. Cocultures were maintained for 48 hours in RPMI 1640+10% FBS in the presence of mouse recombinant GM-CSF (10 ng/ml; Rocky Hill) to ensure neutrophil viability. All control conditions were in the presence of media with GM-CSF. All indicated supplements (NE, S100A8/A9, BGJ398, ICI 118-551, IL-2, MPO inhibitor, LPS, lipids, PMA, and thapsigargin 1 μM) were added to culture at the same time as PMN and maintained for 48 hours. After that, media were removed and replaced by fresh media without GM-CSF. After 1 week, GFP^+ cells in wells were counted via an inverted microscope. When lipid extracts were used, lipids were added to dormant cells in culture at 1 to 0.05 or 0.01 nmol as indicated in each experiment.

[2] = system: MPO; assay: MPO activity in neutrophils; type: cell-based, mouse; details: S100A8/A9 5 μg/ml or LPS 2 μg/ml
Description: Neutrophils were isolated from tumor-free mice as described above, and MPO activity was measured with an MPO Fluorometric Activity Assay Kit (Sigma-Aldrich) using a VICTOR spectrophotometer (PerkinElmer).

[3] = system: PMN; assay: LC-ESI-MS analysis of lipids in PMN; type: cell-based, mouse
Description: Lipids were extracted by the Folch procedure with slight modifications, under nitrogen atmosphere, at all steps. Briefly, methanol (1 ml) was added to the cell suspension and mixed. After that, chloroform (2 ml) was added, and the mixture was vortexed every 15 min for 1 hour at 0° C. Next, 0.1 M NaCl (0.5 ml) was added to the samples and vortexed, and the chloroform layer was separated by centrifugation (1500 g, 5 min). The lower (organic) layer was collected. The aqueous layer was re-extracted with 1 ml of chloroform/methanol (2:1, v/v). The chloroform (lower) layers were combined, evaporated under a stream of nitrogen, and used for lipidomics analysis. MS analysis of phospholipids was performed on a Fusion Lumos trihybrid-quadrupoleorbitrap-ion trap mass spectrometer (Thermo Fisher Scientific). Phospholipids were separated on a normal phase column [Luna 3 μm Silica (2) 100 A, 150×1.0 mm (Phenomenex)] at a flow rate of 0.065 ml/min on a Thermo Ultimate 3000 HPLC system. The column was maintained at 35° C. The analysis was performed using gradient solvents (A and B) containing 10 mM ammonium formate. Solvent A contained propanol/hexane/water (285:215:5, v/v/v) and solvent B contained propanol/hexane/water (285:215:40, v/v/v). All solvents were LC/MS grade. The column was eluted for 0 to 3 min with a linear gradient from 10 to 37% B and then held for 3 to 15 min at 37% B. The column was eluted for 15 to 23 min with a linear gradient of 37 to 100% B, and then held for 23 to 75 min at 100% B. The column was eluted again for 75 to 76 min with a linear gradient from 100 to 10% B followed by equilibration from 76 to 90 min at 10% B. Analysis was performed in negative ion mode at a resolution of 120,000 for the full MS scan in a data-dependent mode. The scan range for MS analysis was 400 to 1800 m/z (mass/charge ratio) with a maximum injection time of 100 ms using 1 microscan. An isolation window of 1.2 Da was set for the MS and MS2 scans. Capillary spray voltage was set at 3.5 kV, and capillary temperature was 320° C.

Row | Molecule | NE- and PMN-induced reactivation of dormant human tumor cells, effect of β-blocker [1] | MPO enzymatic activity in PMN [2] | content of oxidatively truncated PC species in PMN ([3]; PMN incubation) | accumulation of oxidized, oxidatively truncated, and lyso-PE in PMN ([3]; overnight treatment) | content of LPE containing saturated and monoenic acyl chains in PMN ([3]; overnight treatment)
1 | Cc1ccc(OCC(O)C(C)NC(C)C)c2c1CCC2 (centres unmarked) [ICI-118,551] | this effect was abrogated |  |  |  | 
2 | S100A8/A9: recombinant S100A8/A9, heterocomplex of two S100 calcium binding proteins (calprotectin) (protein, UniProt P27005 2-89; P31725 2-113, looked up) Protein S100-A8: PSELEKALSNLIDVYHNYSNIQGNHHALYKNDFKKMVTTECPQFVQNINIENLFRELDINSDNAINFEEFLAMVIKVGVASHKDSHKE Protein S100-A9: ANKAPSQMERSITTIIDTFHQYSRKEGHPDTLSKKEFRQMVEAQLATFMKKEKRNEALINDIMEDLDTNQDNQLSFEECMMLMAKLIFACHEKLHENNPRGHGHSHGKGCGK |  | activated MPO in PMN | No significant changes in the content of oxidatively truncated PC species | caused marked accumulation of oxidized, oxidatively truncated, and lyso-PE in PMN | did not change the content of LPE containing saturated and monoenic acyl chains in PMN
